Laboratory results from US20030157054A1 (Merck KGaA, published 2003).
Changes are numbered by the printed parent chain.

T1: human epithelial cell adhesion molecule (EpCAM) on the cell surface (human, UniProt P16422 24-314)
T1 construct: whole, on cells; also called KS antigen; KSA
T1 sequence (looked up): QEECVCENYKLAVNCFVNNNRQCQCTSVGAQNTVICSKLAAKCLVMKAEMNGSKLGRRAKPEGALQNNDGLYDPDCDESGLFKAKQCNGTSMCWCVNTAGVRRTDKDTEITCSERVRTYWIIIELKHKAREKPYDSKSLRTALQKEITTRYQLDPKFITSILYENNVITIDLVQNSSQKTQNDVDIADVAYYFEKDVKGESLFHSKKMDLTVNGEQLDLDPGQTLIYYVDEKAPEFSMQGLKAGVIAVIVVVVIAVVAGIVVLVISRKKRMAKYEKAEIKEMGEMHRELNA

B1: VK1/VH1 (antibody, V domains shown)
VH: QIQLVQSGPELKKPGSSVKISCKASGYTFTNYGMNWVRQAPGKGLKWMGWINTYTGEPTYADDFKGRFTITAETSTSTLYLQLNNLRSEDTATYFCVRFMSKGDYWGQGTTVTVSS
VL: QIVLTQSPASLAVSPGQRATITCSASSSVSYILWYQQKPGQPPKPWIFDTSNLASGFPSRFSGSGSGTSYTLTINSLEAEDAATYYCHQRSGYPYTFGGGTKVEIK
B2: VK1/VH2.1-IL2 (protein)
VL: B1 VL
VH: QIQLVQSGPELKKPGSSVKISCKASGYTFTNYGMNWVRQAPGKGLKWMGWINTYTGEPTYADDFKGRFTITAETSTSTLYLQLNNLRSEDTATYFCVRFIISKGDYWGQGTTVTVSS
B3: VK1/VH2 (antibody, V domains shown)
VH: B1 VH with M100I
VL: B1 VL
B4: VK1/VH2-IL2 (protein)
VL: B1 VL
VH: B1 VH with M100I
B5: VK1/VH1-IL2 (protein)
VL: B1 VL
VH: B1 VH
B6: VK1/VH2.5-IL2 (protein)
VL: B1 VL
VH: B1 VH with M100I, Q108T
B7: VK1/VH2.3-IL2 (protein)
VL: B1 VL
VH: B2 VH with I101S, S102A
B8: VK1/VH2.4-IL2 (protein)
VL: B1 VL
VH: B2 VH with I101S, S102K, K103T
B9: VK1/VH2.2-IL2 (protein)
VL: B1 VL
VH: B2 VH with I101V
B10: VK6/VH6 (Construct 1) (antibody, V domains shown)
VH: QVQLVQSGAEVKKPGESVKISCKASGYTFTNYGMNWVRQAPGKGLEWMGWINTYTGEPTYAQKFQGRVTISLDTSTSTAYLQLSSLRAEDTAVYFCVRFISKGDYWGQGTSVTVSS
VL: EIVLTQSPATLSLSPGERVTLTCSASSSVSYMLWYQQKPGQAPKLLIFDTSNLASGIPARFSGSGSGTDYTLTISSLEPEDFAVYYCHQRSGYPYTFGGGTKLEIK
B11: VK8/VH7 (Construct 3) (antibody, V domains shown)
VH: QIQLVQSGAEVKKPGETVKISCKASGYTFTNYGMNWVKQTPGKGLKWMGWINTYTGEPTYADDFKGRFAFSLETSTSTAFLQINNLRSEDTATYFCVRFISKGDYWGQGTSVTVSS
VL: EIVLTQSPATLSLSPGERVTLTCSASSSVSYMLWYQQKPGSSPKPWIFDTSNLASGFPARFSGSGSGTSYSLIISSMEAEDAATYYCHQRSGYPYTFGGGTKLEIK
notes: Intact antibody with human constant regions (pdHL7 vector); also called KS antibody (Construct 3)
B12: VK0/VH'369 ('369 chKS-1/4) (antibody, V domains shown)
VH: QIQLVQSGPELKKPGETVKISCKASGYTFTNYGMNWVKQTPGKGLKWMGWINTYTGEPTYADDFKGRFAFSLETSASTAFLQIQQPQNMRTMATYFCVRFISKGDYWGQGTSVTVSS
VL: B11 VL with E1Q, V3L, T10I, L11M, L13A, R18K, L21M
B13: VK1/VH7 (antibody, V domains shown)
VH: B11 VH
VL: B1 VL
B14: VK0/VH1 (antibody, V domains shown)
VH: B1 VH
VL: B11 VL with E1Q, V3L, T10I, L11M, L13A, R18K, L21M

What was measured:
[1] = target: soluble human EpCAM-murine Fc (KSA-muFc) (human) (UniProt P16422); experiment: ELISA on plates coated with KSA-muFc; Group 1
[2] = target: soluble human EpCAM-murine Fc (KSA-muFc) (human) (UniProt P16422); experiment: ELISA on plates coated with KSA-muFc; Group 2, normalized to VK8/VH7
[3] = target: soluble human EpCAM-murine Fc (KSA-muFc) (human) (UniProt P16422); experiment: ELISA on plates coated with KSA-muFc; Group 3, normalized to VK8/VH7-IL2
[4] = target: soluble human EpCAM-murine Fc (KSA-muFc) (human) (UniProt P16422); experiment: SPR (Biacore), EpCAM-muFc coupled to CM5 chip, fusion protein in solution
[5] = target: soluble human EpCAM-murine Fc (KSA-muFc) (human) (UniProt P16422); experiment: EpCAM binding assay (ELISA on KSA-muFc)
[6] = target: soluble human EpCAM-murine Fc (KSA-muFc) (human) (UniProt P16422); experiment: ELISA on plates coated with KSA-muFc; Group 2, control to which the group is normalized
[7] = target: T1, human epithelial cell adhesion molecule …; experiment: 125I-labelled protein on EpCAM-positive PC-3 tumor cells, saturation binding with Scatchard analysis
Protocol: Purified KS-1/4 antibodies were iodinated with ¹²⁵I using standard techniques, and increasing concentrations of labeled protein were incubated with the EpCAM-positive cell line PC-3. Saturation binding curves were generated and the dissociation constants were determined by Scatchard analysis.
In addition, the binding of iodinated VK8/VH7 and VK8/VH7-IL2 to EpCAM expressed on the surface of PC-3 tumor cells was compared to binding of iodinated VK0/VH0-IL2, using methods described in Example 1F. Within experimental error, essentially identical binding affinities were found for VK8/VH7 and VK0/VH0, and for VK8/VH7-IL2 and VK0/VH0-IL2.

Molecule	Relative binding (fold-increase in protein concentration required to reach an equivalent level of binding) [2]	Relative binding (fold-increase in protein concentration required to reach an equivalent level of binding) [3]	also measured
VK0/VH0 (Hybridoma chKS-1/4) (antibody)			Relative binding (fold-increase in protein concentration required to reach an equivalent level of binding) [1]: 1 fold
B1	2 fold		
B2		> 10 fold	
B3	1 to 2 fold		
B4	1.5 fold		koff [4]: 0.00053 s⁻¹; kon [4]: 170000 M⁻¹ s⁻¹
B5	5 fold	2 fold	koff [4]: 0.0022 s⁻¹; kon [4]: 280000 M⁻¹ s⁻¹
B6	3 to 4 fold		
B7		7 fold	
B8		3 fold	
B9		> 10 fold	
B10			fold less active in an EpCAM binding assay [5]: > 10 fold
B11			Relative binding (fold-increase in protein concentration required to reach an equivalent level of binding) [6]: 1 fold; binding result [7]: binds
B12			Relative binding (fold-increase in protein concentration required to reach an equivalent level of binding) [1]: > 30 fold
B13	1 fold		
B14	8 fold		
